Assays:
rat TIMP-1 [1] = biological target: T1, rat TIMP-1 (rat, UniProt P30120 24-217); test: cell-based or functional assay
rat TIMP-1 [2] = biological target: T1, rat TIMP-1; test: SPR (BIAcore), TIMP-1 coupled to chip, monovalent Fab
Method: For affinity determination, monomeric fractions of affinity and SEC purified Fab fragments or purified IgG1 molecules were used. All experiments were conducted in HBS buffer at a flow rate of 20 μl/min at 25° C. on a BIAcore™ instrument. Antigens in 100 mM sodium acetate pH 5.0 were coupled to a CM 5 sensor chip using standard EDC-NHS coupling chemistry. […] All sensograms were fitted globally using BIA evaluation software. For monovalent Fab fragments a monovalent fit (Langmuir binding) and for IgGs a bivalent fit was applied.

T1 sequence (P30120 24-217 limits assumed): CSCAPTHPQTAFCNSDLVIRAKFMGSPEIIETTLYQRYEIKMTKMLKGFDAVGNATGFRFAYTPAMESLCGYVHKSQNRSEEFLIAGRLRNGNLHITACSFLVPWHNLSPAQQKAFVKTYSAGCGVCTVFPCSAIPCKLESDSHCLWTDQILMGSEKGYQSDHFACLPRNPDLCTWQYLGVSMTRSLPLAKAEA

Row | Binder | IC50 in rat protease assay (rat TIMP-1 [1]) | Kd (rat TIMP-1 [2])
1 | MS-BW-15 (Fab, V domains shown, Fab, FLAG + Strep-tag II; not tied by name) VH: not shown VL: DIALTQPASVSGSPGQSITISCTGTSSDVGGYNYVSWYQQHPGKAPKLMIYDVSNRPSGVSNRFSGSKSGNTASLTISGLQAEDEADYYCQSYDVLDSEVFGGGTKLTVLG | ~200 nM | ~80 nM
2 | MS-BW-13 (Fab, V domains shown, Fab, FLAG + Strep-tag II; not tied by name) VH: not shown VL: DIELTQPPSVSVAPGQTARISCSGDALGDKYASWYQQKPGQAPVLVIYDDSDRPSGIPERFSGSNSGNTATLTISGTQAEDEADYYCQSWDIHPFDVVFGGGTKLTVLG | – | ~939 nM
3 | MS-BW-6 (Fab, V domains shown, Fab, FLAG + Strep-tag II; not tied by name) VH: not shown VL: DIVLTQPPSVSGAPGQRVTISCSGSSSNIGSNYVSWYQQLPGTAPKLLIYDNNQRPSGVPDRFSGSKSGTSASLAITGLQSEDEADYYCQSYDQRKWVFGGGTKLTVLG | ~100 nM | ~68 nM
4 | MS-BW-58 (Fab, V domains shown, Fab, FLAG + Strep-tag II; not tied by name) VH: QVQLQQSGPGLVKPSQTLSLTCAISGDSVSSNSAAWNWIRQSPGRGLEWLGRTYYRSKWYNDYAVSVKSRITINPDTSKNQFSLQLNSVTPEDTAVYYCARWMTPPGHYYGYTFDVWGQGTLVTVSS VL: DIELTQPPSVSVAPGQTARISCSGDALGDKYASWYQQKPGQAPVLVIYDDSDRPSGIPERFSGSNSGNTATLTISGTQAEDEADYYCQSWDPSHYYVFGGGTKLTVLG | – | ~138 nM
5 | MS-BW-10 (Fab, V domains shown, Fab, FLAG + Strep-tag II; not tied by name) VH: QVQLVQSGAEVKKPGASVKVSCKASGYTFTSYYMHWVRQAPGQGLEWMGWINPNSGGTNYAQKFQGRVTMTRDTSISTAYMELSSLRSEDTAVYYCARLVGIVGYKPDELLYFDVWGQGTLVTVSS VL: DIELTQPPSVSVAPGQTARISCSGDALGDKYASWYQQKPGQAPVLVIYDDSDRPSGIPERFSGSNSGNTATLTISGTQAEDEADYYCQSYDYSLLVFGGGTKLTVLG | ~30 nM | ~200 nM
6 | MS-BW-11 (Fab, V domains shown, Fab, FLAG + Strep-tag II; not tied by name) VH: not shown VL: DIELTQPPSVSVAPGQTARISCSGDALGDKYASWYQQKPGQAPVLVIYDDSDRPSGIPERFSGSNSGNTATLTISGTQAEDEADYYCQSYDFNFHVFGGGTKLTVLG | > 300 nM | ~200 nM
7 | MS-BW-9 (Fab, V domains shown, Fab, FLAG + Strep-tag II; not tied by name) VH: not shown VL: DIVLTQPPSVSGAPGQRVTISCSGSSSNIGSNYVSWYQQLPGTAPKLLIYDNNQRPSGVPDRFSGSKSGTSASLAITGLQSEDEADYYCQSYDGFKTHVFGGGTKLTVLG | > 300 nM | ~256 nM
8 | MS-BW-5 (Fab, V domains shown, Fab, FLAG + Strep-tag II; not tied by name) VH: QVQLVQSGAEVKKPGSSVKVSCKASGGTFSSYAISWVRQAPGQGLEWMGGIIPIFGTANYAQKFQGRVTITADESTSTAYMELSSLRSEDTAVYYCARGLYWAVYPYFDFWGQGTLVTVSS VL: DIVLTQPPSVSGAPGQRVTISCSGSSSNIGSNYVSWYQQLPGTAPKLLIYDNNQRPSGVPDRFSGSKSGTSASLAITGLQSEDEADYYCQSRDFNRGPVFGGGTKLTVLG | – | ~210 nM
9 | MS-BW-7 (Fab, V domains shown) VH: QVQLVQSGAEVKKPGSSVKVSCKASGGTFSSYAISWVRQAPGQGLEWMGGIIPIFGTANYAQKFQGRVTITADESTSTAYMELSSLRSEDTAVYYCARTYYYFDSWGQGTLVTVSS VL: not shown | > 300 nM | ~168 nM
10 | MS-BW-12 (Fab, V domains shown, Fab, FLAG + Strep-tag II; not tied by name) VH: QVQLQQSGPGLVKPSQTLSLTCAISGDSVSSNSAAWNWIRQSPGRGLEWLGRTYYRSKWYNDYAVSVKSRITINPDTSKNQFSLQLNSVTPEDTAVYYCARGYADISFDYWGQGTLVTVSS VL: DIALTQPASVSGSPGQSITISCTGTSSDVGGYNYVSWYQQHPGKAPKLMIYDVSNRPSGVSNRFSGSKSGNTASLTISGLQAEDEADYYCQSYDMIARYPVFGGGTKLTVLG | > 300 nM | ~419 nM

— patent US20140086935A1 (Bayer, published 2014)
